The target of assay [1] is T1, human insulin receptor (HIR) (human, UniProt P06213). Kind of assay: competition.
The next assay concerns the target mIR (human, UniProt P06213). Put plainly: FP vs FITC-RP9.
In assay [2] the target is T1, human insulin receptor (HIR). Kind of assay: competition. The source holds these as a separate data set.
For assay [3] the target is unchanged. Kind of assay: competition. The source holds these as a separate data set.

Where two headings read alike, the source gives them in different places. Positions of bridges follow the written chain, without caps; N, C: chain ends. Non-standard residues stand in square brackets, D forms with d. No end group written: not given here. Hyp = O=C(O)[C@@H]1C[C@@H](O)CN1; Tic = O=C(O)[C@@H]1Cc2ccccc2CN1; Abu = CC[C@H](N)C(=O)O

B1: S215 (peptide)
chain: AFYGWFAKK
With B1, the Kd (as a rule, the constant that tells how readily two partners part at equilibrium) in assay [1] is > 20 µM.

B2: S219 (peptide)
chain: FHENAYDWFVRQVSKK
As to B2, the dissociation constant (Kd) in assay [1] was > 20 µM.

B3: S108 (peptide)
chain: FHENFYDWFVAQVSKK
In turn, B3 came in with a Kd in assay [1] of 7.5 µM.

B4: S366 (peptide)
chain: PLRESRNFYDWFVQQLE
Take B4: the affinity in assay [1], expressed as Kd, was 3.7 µM.

B5: S317 (peptide)
chain: WFGYAWLS
Take B5: the Kd in assay [1] was > 20 µM.

B6: S222 (peptide)
chain: FHENFYDAFVRQVSKK
On to B6, for which the equilibrium dissociation constant (Kd) in assay [1] was > 20 µM.

B7: S181 (peptide)
chain: AFYDWFA
For the molecule B7, the Kd in assay [1] was > 20 µM.

B8: S398 (peptide)
chain: GSLDESFYDWF
Regarding B8, the dissociation constant Kd in assay [1] is > 20 µM.

B9: S283 (peptide)
chain: APVSTEELRWGALLFGQWAG
For B9, in assay [1], the Kd is > 20 µM.

B10: S284 (peptide)
chain: ALEEEWAWVQVRSIRSGLPL
Turning to B10, the Kd in assay [1] was > 20 µM.

B11: H2C (D117) (peptide)
chain: FHENFYDWFVQRVSKK
As for B11, in the assay with mIR, the IC50 (in general, the midpoint of a concentration-inhibition curve) worked out at 0.77 µM.

B12: E8 (D120) (peptide)
chain: GGTVWPGYEWLRNA
Consider B12, for which the 50% inhibitory concentration (IC50) with mIR is > 100 µM.

B13: S403 (peptide)
chain: ESFYDWF
As to B13, in assay [1], the Kd is > 20 µM.

B14: S182 (peptide)
chain: AFYDWF
Take B14: the dissociation constant Kd in assay [1] was > 20 µM.

B15: S114 (peptide)
chain: [dF][dH][dE][dN][dF][dY][dD][dW][dF][dV][dR][dQ][dV][dS][dK][dK]
Turning to B15, the Kd in assay [1] was 8.3 µM.

B16: S402 (peptide)
chain: ESFYDWFE
Regarding B16, the dissociation constant Kd in assay [1] was > 20 µM.

B17: S268 (peptide)
chain: RD[Hyp]FYDWEDD[dI]
With B17, the dissociation constant Kd in assay [1] came to 0.45 µM.

B18: S396 (peptide)
chain: GSLDESFYDWFER
In the case of B18, the Kd in assay [1], in assay [2] and in assay [3] was > 20 µM each time.

B19: S220 (peptide)
chain: FHENFADWFVRQVSKK
As for B19, the dissociation constant (Kd) in assay [1] is > 20 µM.

B20: S118 (peptide)
chain: SDGEYNAIELLS
Consider B20, for which, in assay [1], the equilibrium dissociation constant (Kd) came out at 2.4 µM.

B21: S184 (peptide)
chain: Ac-FYDWF
On to B21, for which the Kd in assay [1] was > 20 µM.

B22: S167 (peptide)
chain: AFYDWFAKK
B22: the equilibrium dissociation constant (Kd) in assay [1] is > 20 µM.

B23: S401 (peptide)
chain: ESFYDWFER
With B23, in assay [1], the dissociation constant Kd was > 20 µM.

B24: S266 (peptide)
chain: [Abu]CLEE[dW]GASL[Tic]QCSG
modifications: disulfide 2-13 (inferred)
As to B24, the dissociation constant (Kd) in assay [1] was > 20 µM.

B25: S371 (RP9) (peptide)
chain: GSLDESFYDWFERQLGKK
B25: in the assay with mIR, the IC50 was determined as 0.049 µM. This counts as double-digit nanomolar.

B26: S278 (peptide)
chain: GFREGQRWYWFVAQVT
Take B26: in assay [1], the dissociation constant Kd was > 20 µM.

B27: S397 (peptide)
chain: GSLDESFYDWFE
Turning to B27, the Kd in assay [1] is > 20 µM.

B28: S180 (peptide)
chain: AFYDWFAK
On to B28, for which, in assay [1], the Kd is > 20 µM.

B29: S282 (peptide)
chain: HLSVGEELSWWVALLGQWAR
Turning to B29, the Kd in assay [1] was > 20 µM.

B30: S289 (peptide)
chain: DPFYQGLWEWLRESGEE
For the molecule B30, the Kd in assay [1] is > 20 µM.

B31: S122 (peptide)
chain: HPTSKEIYAKLLK
For the molecule B31, the dissociation constant Kd in assay [1] amounted to 93 µM.

B32: S223 (peptide)
chain: FHENFYDWAVRQVSKK
Turning to B32, the dissociation constant Kd in assay [1] was > 20 µM.

B33: S166 (peptide)
chain: FYDWFKK
In the case of B33, the dissociation constant (Kd) in assay [1] is > 20 µM.

B34: S214 (peptide)
chain: AFYEWFAKK
Regarding B34, the Kd in assay [1] was > 20 µM.

B35: S183 (peptide)
chain: FYDWFA
B35: the equilibrium dissociation constant (Kd) in assay [1] is > 20 µM.

B36: S113 (peptide)
chain: AHENFYDWFVRQVSKK
B36: in assay [1], binding was put at a Kd of 5.9 µM.

B37: S216 (peptide)
chain: AFYKWFAKK
As to B37, the equilibrium dissociation constant (Kd) in assay [1] is > 20 µM.

B38: S165 (peptide)
chain: FYDWF
On to B38, for which the dissociation constant (Kd) in assay [1] is > 20 µM.

These data come from patent publication US20090053807 (published 2009).
